According to patent US10967068B2, “Stability-modulating linkers for use with antibody drug conjugates” (priority 2014, dated 2021):
*1 amine or outer side, *2 acyl side, *3 side chain or, on linkers, in order; H or OH if unused. Where a SMILES comes first, the peptide text is derived from it. [ ]: non-standard residue; d: D form. The star is where a group is joined. Dolaproine = CO[C@@H]([C@@H]1CCCN1)[C@@H](C)C(=O)O; Dil = CC[C@H](C)[C@H](NC)[C@@H](CC(=O)O)OC; PABC = O=C(OCc1ccc(N[*:1])cc1)[*:2]; Doe = c1ccc(C[C@H](N*)c2nccs2)cc1; Glyceroyl(2S) = O=C([C@@H](O)CO)*; Cit = NC(=O)NCCC[C@H](N)C(=O)O; Propanoyl(3-OH) = O=C(CCO)*; dLac = C[C@@H](O)C(=O)O; Lac = C[C@H](O)C(=O)O; Aib = CC(C)(N)C(=O)O

Assay: In Vitro Stability Assay—Mouse Plasma
Assay type: in vitro ADME
Conditions: attachment position L11B; for Conjugate stability (%): % DAR remaining after plasma 3 or 4.5 days; for DAR: before plasma incubation
Description: 100-200 ug of ADC were incubated in mouse plasma (provided by Bioreclamation) supplemented with 1×PBS to the final ADC concentration of 0.125 mg/mL. Following incubation for 3-7 days, samples were diluted with an equal volume of 1×PBS, and ADCs were isolated using Trop2 antigen coupled to CNBr-activated Sepharose (GE Healthcare) using standard protocols. Drug-antibody ratios were assessed before and after in vitro exposure using HIC methods and mass spectrometry.
DAR values for conjugates purified after plasma incubation were compared to DAR values prior to plasma treatment.

Row | SMILES | DAR after plasma incubation for 3 to 4.5 days | Conjugate stability (%) | DAR
1 | CC[C@H](C)[C@@H]([C@@H](CC(=O)N1CCC[C@H]1[C@H](OC)[C@@H](C)C(=O)N[C@@H](Cc1ccccc1)c1nccs1)OC)N(C)C(=O)[C@@H](NC(=O)C(C)(C)NC(=O)OCc1ccc(NC(=O)[C@H](CCCNC(N)=O)NC(=O)[C@@H](NC(=O)[C@H](CCCCN)NC(=O)[C@H](C)N)C(C)C)cc1)C(C)C [Example 34, L-alanyl-L-lysylvalyl-N-{4-[(8S,11S,12R)-11-[(2S)-butan-2-yl]-12-(2-{(2S)-2-[(1R,2R)-1-methoxy-2-methyl-3-oxo-3-{[(1S)-2-phenyl-1-(1,3-thiazol-2-yl)ethyl]amino}propyl]pyrrolidin-1-yl}-2-oxoethyl)-5,5,10-trimethyl-3,6,9-trioxo-8-(propan-2-yl)-2,13-dioxa-4,7,10-triazatetradec-1-yl]phenyl}-N˜5˜-carbamoyl-L-ornithinamide] (H-AKV[Cit][PABC][Aib]V[Dil][Dolaproine]-Doe) | 0.86 | 50% | 1.72
2 | CC[C@H](C)[C@@H]([C@@H](CC(=O)N1CCC[C@H]1[C@H](OC)[C@@H](C)C(=O)N[C@@H](Cc1ccccc1)c1nccs1)OC)N(C)C(=O)[C@@H](NC(=O)C(C)(C)NC(=O)OCc1ccc(NC(=O)[C@H](CCCNC(N)=O)NC(=O)[C@@H](NC(=O)[C@H](CCCCN)NC(=O)[C@@H](C)N)C(C)C)cc1)C(C)C [Example 35, D-alanyl-L-lysylvalyl-N-{4-[(8S,11S,12R)-11-[(2S)-butan-2-yl]-12-(2-{(2S)-2-[(1R,2R)-1-methoxy-2-methyl-3-oxo-3-{[(1S)-2-phenyl-1-(1,3-thiazol-2-yl)ethyl]amino}propyl]pyrrolidin-1-yl}-2-oxoethyl)-5,5,10-trimethyl-3,6,9-trioxo-8-(propan-2-yl)-2,13-dioxa-4,7,10-triazatetradec-1-yl]phenyl}-N˜5˜-carbamoyl-L-ornithinamide] (H-[dA]KV[Cit][PABC][Aib]V[Dil][Dolaproine]-Doe) | 1.07 | 58% | 1.82
3 | CC[C@H](C)[C@@H]([C@@H](CC(=O)N1CCC[C@H]1[C@H](OC)[C@@H](C)C(=O)N[C@@H](Cc1ccccc1)c1nccs1)OC)N(C)C(=O)[C@@H](NC(=O)C(C)(C)NC(=O)OCc1ccc(NC(=O)[C@H](CCCNC(N)=O)NC(=O)[C@@H](NC(=O)[C@H](CCCCN)NC(=O)CNC(C)=O)C(C)C)cc1)C(C)C [Example 37, N-acetylglycyl-L-lysyl-L-valyl-N-{4-[(8S,11S,12R)-11-[(2S)-butan-2-yl]-12-(2-{(2S)-2-[(1R,2R)-1-methoxy-2-methyl-3-oxo-3-{[(1S)-2-phenyl-1-(1,3-thiazol-2-yl)ethyl]amino}propyl]pyrrolidin-1-yl}-2-oxoethyl)-5,5,10-trimethyl-3,6,9-trioxo-8-(propan-2-yl)-2,13-dioxa-4,7,10-triazatetradec-1-yl]phenyl}-N˜5˜-carbamoyl-L-ornithinamide] (Ac-GKV[Cit][PABC][Aib]V[Dil][Dolaproine]-Doe) | 0.85 | 44% | 1.94
4 | CC[C@H](C)[C@@H]([C@@H](CC(=O)N1CCC[C@H]1[C@H](OC)[C@@H](C)C(=O)N[C@@H](Cc1ccccc1)c1nccs1)OC)N(C)C(=O)[C@@H](NC(=O)C(C)(C)NC(=O)OCc1ccc(NC(=O)[C@H](CCCNC(N)=O)NC(=O)[C@@H](NC(=O)[C@H](CCCCN)NC(=O)[C@@H](N)CO)C(C)C)cc1)C(C)C [Example 38, L-seryl-L-lysylvalyl-N-{4-[(8S,11S,12R)-11-[(2S)-butan-2-yl]-12-(2-{(2S)-2-[(1R,2R)-1-methoxy-2-methyl-3-oxo-3-{[(1S)-2-phenyl-1-(1,3-thiazol-2-yl)ethyl]amino}propyl]pyrrolidin-1-yl}-2-oxoethyl)-5,5,10-trimethyl-3,6,9-trioxo-8-(propan-2-yl)-2,13-dioxa-4,7,10-triazatetradec-1-yl]phenyl}-N˜5˜-carbamoyl-L-ornithinamide] (H-SKV[Cit][PABC][Aib]V[Dil][Dolaproine]-Doe) | 1.32 | 90% | 1.47
5 | CC[C@H](C)[C@@H]([C@@H](CC(=O)N1CCC[C@H]1[C@H](OC)[C@@H](C)C(=O)N[C@@H](Cc1ccccc1)c1nccs1)OC)N(C)C(=O)[C@@H](NC(=O)C(C)(C)NC(=O)OCc1ccc(NC(=O)[C@H](CCCNC(N)=O)NC(=O)[C@@H](NC(=O)[C@H](CCCCN)NC(=O)[C@H](N)CO)C(C)C)cc1)C(C)C [Example 39, D-seryl-L-lysylvalyl-N-{4-[(8S,11S,12R)-11-[(2S)-butan-2-yl]-12-(2-{(2S)-2-[(1R,2R)-1-methoxy-2-methyl-3-oxo-3-{[(1S)-2-phenyl-1-(1,3-thiazol-2-yl)ethyl]amino}propyl]pyrrolidin-1-yl}-2-oxoethyl)-5,5,10-trimethyl-3,6,9-trioxo-8-(propan-2-yl)-2,13-dioxa-4,7,10-triazatetradec-1-yl]phenyl}-N˜5˜-carbamoyl-L-ornithinamide] (H-[dS]KV[Cit][PABC][Aib]V[Dil][Dolaproine]-Doe) | 1.53 | 82% | 1.87
6 | CC[C@H](C)[C@@H]([C@@H](CC(=O)N1CCC[C@H]1[C@H](OC)[C@@H](C)C(=O)N[C@@H](Cc1ccccc1)c1nccs1)OC)N(C)C(=O)[C@@H](NC(=O)C(C)(C)NC(=O)OCc1ccc(NC(=O)[C@H](CCCNC(N)=O)NC(=O)[C@@H](NC(=O)[C@H](CCCCN)NC(=O)[C@H](C)O)C(C)C)cc1)C(C)C [Example 40, N˜2˜-[(2S)-2-hydroxypropanoyl]-L-lysylvalyl-N-{4-[(8S,11S,12R)-11-[(2S)-butan-2-yl]-12-(2-{(2S)-2-[(1R,2R)-1-methoxy-2-methyl-3-oxo-3-{[(1S)-2-phenyl-1-(1,3-thiazol-2-yl)ethyl]amino}propyl]pyrrolidin-1-yl}-2-oxoethyl)-5,5,10-trimethyl-3,6,9-trioxo-8-(propan-2-yl)-2,13-dioxa-4,7,10-triazatetradec-1-yl]phenyl}-N˜5˜-carbamoyl-L-ornithinamide] (H-[Lac]KV[Cit][PABC][Aib]V[Dil][Dolaproine]-Doe) | 1.08 | 58% | 1.87
7 | CC[C@H](C)[C@@H]([C@@H](CC(=O)N1CCC[C@H]1[C@H](OC)[C@@H](C)C(=O)N[C@@H](Cc1ccccc1)c1nccs1)OC)N(C)C(=O)[C@@H](NC(=O)C(C)(C)NC(=O)OCc1ccc(NC(=O)[C@H](CCCNC(N)=O)NC(=O)[C@@H](NC(=O)[C@H](CCCCN)NC(=O)[C@@H](C)O)C(C)C)cc1)C(C)C [Example 41, N˜2˜-[(2R)-2-hydroxypropanoyl]-L-lysylvalyl-N-{4-[(8S,11S,12R)-11-[(2S)-butan-2-yl]-12-(2-{(2S)-2-[(1R,2R)-1-methoxy-2-methyl-3-oxo-3-{[(1S)-2-phenyl-1-(1,3-thiazol-2-yl)ethyl]amino}propyl]pyrrolidin-1-yl}-2-oxoethyl)-5,5,10-trimethyl-3,6,9-trioxo-8-(propan-2-yl)-2,13-dioxa-4,7,10-triazatetradec-1-yl]phenyl}-N˜5˜-carbamoyl-L-ornithinamide] (H-[dLac]KV[Cit][PABC][Aib]V[Dil][Dolaproine]-Doe) | 0.91 | 49% | 1.86
8 | CC[C@H](C)[C@@H]([C@@H](CC(=O)N1CCC[C@H]1[C@H](OC)[C@@H](C)C(=O)N[C@@H](Cc1ccccc1)c1nccs1)OC)N(C)C(=O)[C@@H](NC(=O)C(C)(C)NC(=O)OCc1ccc(NC(=O)[C@H](CCCNC(N)=O)NC(=O)[C@@H](NC(=O)[C@H](CCCCN)NC(=O)[C@@H](O)CO)C(C)C)cc1)C(C)C [Example 42, N˜2˜-[(2S)-2,3-dihydroxypropanoyl]-L-lysylvalyl-N-{4-[(8S,11S,12R)-11-[(2S)-butan-2-yl]-12-(2-{(2S)-2-[(1R,2R)-1-methoxy-2-methyl-3-oxo-3-{[(1S)-2-phenyl-1-(1,3-thiazol-2-yl)ethyl]amino}propyl]pyrrolidin-1-yl}-2-oxoethyl)-5,5,10-trimethyl-3,6,9-trioxo-8-(propan-2-yl)-2,13-dioxa-4,7,10-triazatetradec-1-yl]phenyl}-N˜5˜-carbamoyl-L-ornithinamide] ({Glyceroyl(2S)}-KV[Cit][PABC][Aib]V[Dil][Dolaproine]-Doe) | 1.60 | 85% | 1.87
9 | CC[C@H](C)[C@@H]([C@@H](CC(=O)N1CCC[C@H]1[C@H](OC)[C@@H](C)C(=O)N[C@@H](Cc1ccccc1)c1nccs1)OC)N(C)C(=O)[C@@H](NC(=O)C(C)(C)NC(=O)OCc1ccc(NC(=O)[C@H](CCCNC(N)=O)NC(=O)[C@@H](NC(=O)[C@H](CCCCN)NC(=O)CCO)C(C)C)cc1)C(C)C [Example 43, N˜2˜-(3-hydroxypropanoyl)-L-lysylvalyl-N-{4-[(8S,11S,12R)-11-[(2S)-butan-2-yl]-12-(2-{(2S)-2-[(1R,2R)-1-methoxy-2-methyl-3-oxo-3-{[(1S)-2-phenyl-1-(1,3-thiazol-2-yl)ethyl]amino}propyl]pyrrolidin-1-yl}-2-oxoethyl)-5,5,10-trimethyl-3,6,9-trioxo-8-(propan-2-yl)-2,13-dioxa-4,7,10-triazatetradec-1-yl]phenyl}-N˜5˜-carbamoyl-L-ornithinamide] ({Propanoyl(3-OH)}-KV[Cit][PABC][Aib]V[Dil][Dolaproine]-Doe) | 1.23 | 76% | 1.62
